Our source for the binding signal (% of WT Hfq binding) values is PMC11012335.

What all share (assay): EMSA
In general terms: Mobility shift assays separate free from complexed probe on a gel.

Data set [1] concerns Hfq H57A (Escherichia coli K-12 MG1655). The conditions noted are these: EMSA: 20 mM Tris-HCl pH 7.6, 0.5 M NaCl, 1 mM EDTA, 1% glycerol, 20 min at 25 C, native PAGE in 0.5x TBE at 4 C.
The subject of data set [2] is Hfq K56A (Escherichia coli K-12 MG1655). The conditions noted are these: EMSA: 20 mM Tris-HCl pH 7.6, 0.5 M NaCl, 1 mM EDTA, 1% glycerol, 20 min at 25 C, native PAGE in 0.5x TBE at 4 C.
The subject of data set [3] is Hfq K56A/H57A (Escherichia coli K-12 MG1655). The conditions noted are these: EMSA: 20 mM Tris-HCl pH 7.6, 0.5 M NaCl, 1 mM EDTA, 1% glycerol, 20 min at 25 C, native PAGE in 0.5x TBE at 4 C.
For data set [4], the system named is Hfq Y25D* (Escherichia coli K-12 MG1655). To be noted: EMSA: 20 mM Tris-HCl pH 7.6, 0.5 M NaCl, 1 mM EDTA, 1% glycerol, 20 min at 25 C, native PAGE in 0.5x TBE at 4 C.
The test system of data set [5] is Hfq Q8A (Escherichia coli K-12 MG1655). The conditions noted are these: EMSA: 20 mM Tris-HCl pH 7.6, 0.5 M NaCl, 1 mM EDTA, 1% glycerol, 20 min at 25 C, native PAGE in 0.5x TBE at 4 C.
The target of data set [6] is Hfq K56A/H57A K56A;H57A (Escherichia coli K-12 MG1655) (UniProt P0A6X3). To be noted: EMSA: 20 mM Tris-HCl pH 7.6, 0.5 M NaCl, 1 mM EDTA, 1% glycerol, 20 min at 25 C; native PAGE in 0.5x TBE at 4 C.
The target in data set [7] is Hfq H57A H57A (Escherichia coli K-12 MG1655) (UniProt P0A6X3). To be noted: EMSA: 20 mM Tris-HCl pH 7.6, 0.5 M NaCl, 1 mM EDTA, 1% glycerol, 20 min at 25 C; native PAGE in 0.5x TBE at 4 C.
The target of data set [8] is Hfq Q8A Q8A (Escherichia coli K-12 MG1655) (UniProt P0A6X3). The conditions noted are these: EMSA: 20 mM Tris-HCl pH 7.6, 0.5 M NaCl, 1 mM EDTA, 1% glycerol, 20 min at 25 C; native PAGE in 0.5x TBE at 4 C.
In data set [9] the target is Hfq K56A K56A (Escherichia coli K-12 MG1655) (UniProt P0A6X3). To be noted: EMSA: 20 mM Tris-HCl pH 7.6, 0.5 M NaCl, 1 mM EDTA, 1% glycerol, 20 min at 25 C; native PAGE in 0.5x TBE at 4 C.
Data set [10] has as its target Hfq Y25D* Y25D (Escherichia coli K-12 MG1655) (UniProt P0A6X3). To be noted: EMSA: 20 mM Tris-HCl pH 7.6, 0.5 M NaCl, 1 mM EDTA, 1% glycerol, 20 min at 25 C; native PAGE in 0.5x TBE at 4 C.

In the case of DsrA, the binding signal (% of WT Hfq binding) turned out to be 66.5 in data set [1] (43/174 nM Hfq monomer); 24.4 in data set [2] (43/174 nM Hfq monomer); 13.2 in data set [3] (43/174 nM Hfq monomer); 163 in data set [4] (43/174 nM Hfq monomer); 46.9 in data set [5] (43/174 nM Hfq monomer).
With RNA I FL, the binding signal (% of WT Hfq binding) in data set [1] (130/260 nM Hfq monomer) amounted to 72.7; in [2] (130/260 nM Hfq monomer), 36.1; in [3] (130/260 nM Hfq monomer) it was 13.8; in [4] (130/260 nM Hfq monomer), 125; in data set [5] (130/260 nM Hfq monomer), 86.5.
As for “GGGAACACAUCAGAUUUCCUGGUGUAACGAAUUUUUUAAGUGCUUCUUGCUUAAGCAAGUUUCAUCCCGACCCCCUCAGGGUCGGGAUUU [DsrA]”, the binding signal (% of WT Hfq binding) is 13.2 in data set [6]; 66.5 in data set [7]; 46.9 in data set [8]; 24.4 in [9]; 163 in [10].
